From the supplement of paper PMC10567573

B1: TRIM39 (parent)
chain: YPCVLATEGFTSGRHYWEVEVGDK

Variants of: B1
Assay: protein stability index of a GFP-peptide fusion (GPS, HEK-293T) (PSI 1-6); higher = more stable
Settings: c terminus: a fixed tail appended
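Further: lentivirally expressed fusions sorted by FACS into six bins by GFP to DsRed ratio, PSI derived from sequencing read proportions per bin multiplied by bin number.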

Going from YPCVLATAGFTSGRHYWEVEVGDK to YPCVLATQGFTSGRHYWEVEVGDK, the protein stability index rises from 1.33 to 1.87.

Compared with YPCVLATLGFTSGRHYWEVEVGDK, YPCVLATFGFTSGRHYWEVEVGDK is higher in protein stability index: 1.89 for the first, 2.06 for the second.

Compared with YPCVLATPGFTSGRHYWEVEVGDK, YPCVLATGGFTSGRHYWEVEVGDK is higher in protein stability index: 1.62 for the first, 2.09 for the second.

YPCVLATMGFTSGRHYWEVEVGDK and YPCVLATKGFTSGRHYWEVEVGDK are the same in protein stability index: 2.25 for the first, 2.25 for the second.

Compared with YPCVLATVGFTSGRHYWEVEVGDK, YPCVLATHGFTSGRHYWEVEVGDK is lower in protein stability index: 2.14 for the first, 1.93 for the second.

Compared with YPCVLATSGFTSGRHYWEVEVGDK, YPCVLATYGFTSGRHYWEVEVGDK is higher in protein stability index: 1.25 for the first, 1.35 for the second.

Compared with YPCVLATDGFTSGRHYWEVEVGDK, YPCVLATIGFTSGRHYWEVEVGDK is higher in protein stability index: 1.93 for the first, 2.16 for the second.

Going from YPCVLATTGFTSGRHYWEVEVGDK to YPCVLATRGFTSGRHYWEVEVGDK, the protein stability index falls from 2.01 to 1.58.

Compared with YPCVLATNGFTSGRHYWEVEVGDK, YPCVLITEGFTSGRHYWEVEVGDK is higher in protein stability index: 1.85 for the first, 2.09 for the second.

Going from YPCVLNTEGFTSGRHYWEVEVGDK to YPCVLWTEGFTSGRHYWEVEVGDK, the protein stability index falls from 2.47 to 2.16.

Compared with YPCVLPTEGFTSGRHYWEVEVGDK, YPCVLGTEGFTSGRHYWEVEVGDK is higher in protein stability index: 1.75 for the first, 2.38 for the second.

Going from YPCVLVTEGFTSGRHYWEVEVGDK to YPCVLQTEGFTSGRHYWEVEVGDK, the protein stability index rises from 1.89 to 2.47.

Going from YPCVLCTEGFTSGRHYWEVEVGDK to YPCVLKTEGFTSGRHYWEVEVGDK, the protein stability index rises from 1.44 to 1.59.

Going from YPCVLFTEGFTSGRHYWEVEVGDK to YPCVLYTEGFTSGRHYWEVEVGDK, the protein stability index rises from 1.27 to 1.43.

First: YPCVLHTEGFTSGRHYWEVEVGDK
Second: YPCVLLTEGFTSGRHYWEVEVGDK
The protein stability index of the first is higher: 1.99 for the first, 1.45 for the second.

Going from YPCVLRTEGFTSGRHYWEVEVGDK to YPCVLTTEGFTSGRHYWEVEVGDK, the protein stability index rises from 1.36 to 3.

First: YPCVLDTEGFTSGRHYWEVEVGDK
Second: YPCVLMTEGFTSGRHYWEVEVGDK
The protein stability index of the first is higher: 2.12 for the first, 1.4 for the second.

Going from YPCVLETEGFTSGRHYWEVEVGDK to YPCVLSTEGFTSGRHYWEVEVGDK, the protein stability index falls from 1.71 to 1.44.

First: YPCGLATEGFTSGRHYWEVEVGDK
Second: YPCSLATEGFTSGRHYWEVEVGDK
The protein stability index of the first is higher: 2.69 for the first, 1.61 for the second.

Going from YPCPLATEGFTSGRHYWEVEVGDK to YPCFLATEGFTSGRHYWEVEVGDK, the protein stability index rises from 2.01 to 2.18.

First: YPCKLATEGFTSGRHYWEVEVGDK
Second: YPCNLATEGFTSGRHYWEVEVGDK
The protein stability index of the first is lower: 1.79 for the first, 1.85 for the second.

First: YPCLLATEGFTSGRHYWEVEVGDK
Second: YPCWLATEGFTSGRHYWEVEVGDK
The protein stability index of the first is higher: 2.13 for the first, 1.74 for the second.

Compared with YPCYLATEGFTSGRHYWEVEVGDK, YPCMLATEGFTSGRHYWEVEVGDK is lower in protein stability index: 2.41 for the first, 2.06 for the second.

Compared with YPCQLATEGFTSGRHYWEVEVGDK, YPCRLATEGFTSGRHYWEVEVGDK is higher in protein stability index: 1.46 for the first, 1.78 for the second.

Going from YPCTLATEGFTSGRHYWEVEVGDK to YPCHLATEGFTSGRHYWEVEVGDK, the protein stability index falls from 1.68 to 1.52.

Compared with YPCILATEGFTSGRHYWEVEVGDK, YPCVSATEGFTSGRHYWEVEVGDK is higher in protein stability index: 1.85 for the first, 2.26 for the second.

Compared with YPCVDATEGFTSGRHYWEVEVGDK, YPCVHATEGFTSGRHYWEVEVGDK is lower in protein stability index: 2.17 for the first, 1.36 for the second.

Going from YPCVNATEGFTSGRHYWEVEVGDK to YPCVGATEGFTSGRHYWEVEVGDK, the protein stability index falls from 2.58 to 1.87.

Going from YPCVFATEGFTSGRHYWEVEVGDK to YPCVKATEGFTSGRHYWEVEVGDK, the protein stability index rises from 1.57 to 2.21.

First: YPCVWATEGFTSGRHYWEVEVGDK
Second: YPCVRATEGFTSGRHYWEVEVGDK
The protein stability index of the first is higher: 2.18 for the first, 1.54 for the second.

Going from YPCVMATEGFTSGRHYWEVEVGDK to YPCVIATEGFTSGRHYWEVEVGDK, the protein stability index rises from 1.46 to 1.69.

Compared with YPCVVATEGFTSGRHYWEVEVGDK, YPCVCATEGFTSGRHYWEVEVGDK is lower in protein stability index: 1.74 for the first, 1.22 for the second.

Compared with YPCVTATEGFTSGRHYWEVEVGDK, YPCVYATEGFTSGRHYWEVEVGDK is higher in protein stability index: 2.16 for the first, 2.3 for the second.

Going from YPCVPATEGFTSGRHYWEVEVGDK to YPCVQATEGFTSGRHYWEVEVGDK, the protein stability index rises from 1.56 to 2.31.

Compared with YPCVAATEGFTSGRHYWEVEVGDK, YPCVEATEGFTSGRHYWEVEVGDK is higher in protein stability index: 1.87 for the first, 2.34 for the second.

First: YPCVLAHEGFTSGRHYWEVEVGDK
Second: YPCVLAFEGFTSGRHYWEVEVGDK
The protein stability index of the first is lower: 1.59 for the first, 2.32 for the second.

Going from YPCVLAIEGFTSGRHYWEVEVGDK to YPCVLACEGFTSGRHYWEVEVGDK, the protein stability index rises from 1.63 to 1.84.

Compared with YPCVLAKEGFTSGRHYWEVEVGDK, YPCVLAGEGFTSGRHYWEVEVGDK is lower in protein stability index: 2.46 for the first, 1.77 for the second.

Going from YPCVLASEGFTSGRHYWEVEVGDK to YPCVLAAEGFTSGRHYWEVEVGDK, the protein stability index rises from 1.57 to 2.27.

Going from YPCVLAPEGFTSGRHYWEVEVGDK to YPCVLAQEGFTSGRHYWEVEVGDK, the protein stability index falls from 1.75 to 1.56.

First: YPCVLANEGFTSGRHYWEVEVGDK
Second: YPCVLALEGFTSGRHYWEVEVGDK
The protein stability index of the first is higher: 2.45 for the first, 1.98 for the second.

First: YPCVLAEEGFTSGRHYWEVEVGDK
Second: YPCVLADEGFTSGRHYWEVEVGDK
The protein stability index of the first is higher: 2.16 for the first, 1.74 for the second.

First: YPCVLAYEGFTSGRHYWEVEVGDK
Second: YPCVLAVEGFTSGRHYWEVEVGDK
The protein stability index of the first is lower: 1.09 for the first, 1.79 for the second.

First: YPCVLATEAFTSGRHYWEVEVGDK
Second: YPCVLATECFTSGRHYWEVEVGDK
The protein stability index of the first is higher: 2.49 for the first, 1.57 for the second.

Compared with YPCVLATEFFTSGRHYWEVEVGDK, YPCVLATEDFTSGRHYWEVEVGDK is lower in protein stability index: 2.97 for the first, 2.01 for the second.

First: YPCVLATEEFTSGRHYWEVEVGDK
Second: YPCVLATEKFTSGRHYWEVEVGDK
The protein stability index of the first is higher: 2.2 for the first, 1.8 for the second.

Going from YPCVLATEIFTSGRHYWEVEVGDK to YPCVLATEHFTSGRHYWEVEVGDK, the protein stability index rises from 1.05 to 1.6.
